The record followed here is US11505811B2, “Method for the preparation of 2,4-dihydroxybutyrate” (ADISSEO FRANCE S.A.S., priority 2012, dated 2022).

Series [1] relates to CC(=O)C(=O)O. The experiment in a line: OHB/pyruvate reductase assay, Oc-LdhA. Type of series: biochemical, Oryctalagus cuniculus. The following applies: other: pH 7, 37° C., 0.25 mM NADH. The source says:
(§1) The genes coding for (L)-malate dehydrogenase in Escherichia coli, Ec-mdh (SEQ ID NO: 1), (D)-lactate dehydrogenase in E. coli, Ec-ldhA (SEQ ID NO: 3), (L)-lactate dehydrogenase of Lactococcus lactis, Ll-ldhA (SEQ ID NO: 5), (L)-lactate dehydrogenase of Bacillus subtilis, Bs-ldh (SEQ ID NO: 7), (L)-lactate dehydrogenase of Geobacillus stearothermophilus, Gs-ldh (SEQ ID NO: 9), the two isoforms of the (L)-lactate dehydrogenase of Oryctalagus cuniculus, Oc-ldhA (SEQ ID NO: 11 and SEQ ID NO: 13), were amplified by PCR using the high-fidelity polymerase Phusion™ (Fermentas) and the primers listed in Table 1. Genomic DNAs of E. coli MG1655, L. lactis IL1403, and B. subtilis strain 168 were used as the template. The genes Oc-ldhA, and Gs-ldh were codon-optimized for expression in E. coli and synthesized by MWG Eurofins. The primers introduced restriction sites (Table 1) upstream of the start codon and downstream of the stop codon, respectively, facilitating the ligation of the digested PCR products into the corresponding sites of the pET28a+ (Novagen) expression vector using T4 DNA ligase (Fermentas). Ligation products were transformed into E. coli DH5a cells (NEB). […]

The subject of series [2] is O=C(O)C(=O)CCO. Nature of the series: OHB/pyruvate reductase assay, Oc-LdhA. The series is classed as biochemical, Oryctalagus cuniculus. The note with it: other: pH 7, 37° C., 0.25 mM NADH.
From the text: as §1

One may read the Km as the concentration of substrate that gives half-maximal velocity. In the case of “Oryctolagus cuniculus (printed: Oryctalagus cuniculus) (L)-lactate dehydrogenase Oc-LdhA, SEQ ID NO: 12 and SEQ ID NO: 14 (two isoforms) (Oryctolagus cuniculus)”, the Km in series [1] is reported as 1.5 mM; in series [2], 13 mM.
